The record followed here is paper PMC5620080, “The cryo-EM structure of hibernating 100S ribosome dimer from pathogenic Staphylococcus aureus” (Nature Communications, 2017).

Data set [1] deals with the molecule itself. The data set is described as follows: cryo-EM structure; native 100S ribosome dimers purified from S. aureus; 6.8 Å map of the 100S, 6.7 Å focused map of the dimer interface (C2 symmetry), 3.2 Å masked 30S map.
Data set [2] deals with the molecule itself. Description: SEC; Superdex-200 Increase 10/300 GL; 20 mM Tris pH 7.9, 20 mM MgCl2, 250 mM NH4Cl, 10 mM KCl; 0.5 ml/min; 50 µg of purified HPFSA protein; apparent molecular weights from a standard curve.

B1: S. aureus hibernating promoting factor (HPFSA), full length, in the native 100S ribosome (natural protein, UniProt Q2FIN9 1-190, looked up)
chain: MIRFEIHGDNLTITDAIRNYIEEKIGKLERYFNDVPNAVAHVKVKTYSNSATKIEVTIPLKNVTLRAEERNDDLYAGIDLINNKLERQVRKYKTRINRKSRDRGDQEVFVAELQEMQETQVDNDAYDDNEIEIIRSKEFSLKPMDSEEAVLQMNLLGHDFFVFTDRETDGTSIVYRRKDGKYGLIQTSEQ
notes: hibernating promoting factor (HPF), Staphylococcus aureus JE2 (USA300), full-length hpf under its native promoter; residues 1-190; first 100 residues modelled, C-terminal domain fitted as a homology model; Two copies in the 100S dimer, one for each 70S; also called long HPF; N-HPFSA (N-terminal domain); source: S. aureus hpf-knockout strain (USA300, JE2) with plasmid pLI50hpf; isolated with the …
B1: in data set [1], the binding result is recorded as “binds”.

B2: recombinant His-tagged full-length HPF (HPFSA) (natural protein, S. aureus, UniProt Q2FIN9 1-190, looked up)
chain: MIRFEIHGDNLTITDAIRNYIEEKIGKLERYFNDVPNAVAHVKVKTYSNSATKIEVTIPLKNVTLRAEERNDDLYAGIDLINNKLERQVRKYKTRINRKSRDRGDQEVFVAELQEMQETQVDNDAYDDNEIEIIRSKEFSLKPMDSEEAVLQMNLLGHDFFVFTDRETDGTSIVYRRKDGKYGLIQTSEQ
notes: hibernating promoting factor (HPF), Staphylococcus aureus, full length; also called full-length HPFSA protein; source: E. coli BL21(DE3), pET28a, purified
With B2, the binding result in data set [2] is recorded as “binds”.
